Consider one substance from paper PMC3664827.

pKd: −log10 of the molar value.

This series relates to Lsr2 (Mycobacterium tuberculosis). Description: magnetic tweezers.

As a reminder, the pKd is the negative decadic logarithm of the Kd, by convention in mol/L. In the case of lambda DNA 48,502 bp, the pKd was 7.24.
